Experiment [1] has as its target T1, human IL2Rβ (human, UniProt P14784 27-239).
T1 construct: also called IL2β; CD122
T1 sequence (looked up): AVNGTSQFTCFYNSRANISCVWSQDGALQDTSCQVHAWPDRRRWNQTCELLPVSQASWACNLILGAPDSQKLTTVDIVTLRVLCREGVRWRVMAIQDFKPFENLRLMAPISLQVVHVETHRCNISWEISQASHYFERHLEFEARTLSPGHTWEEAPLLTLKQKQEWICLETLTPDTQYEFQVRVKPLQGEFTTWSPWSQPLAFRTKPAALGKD
The experiment can be described thus: ELISA, receptor coated, anti-human Fc HRP. As for the experimental part: (§1) For bivalent Fc-fusion proteins, human IL2Rα, and human IL2Rβ were each immobilized in a 384 well plate at final concentration of 2 μg/mL in 1×PBS in total volume of 25 μL per well. The plate was incubated overnight at 4° C. followed by blocking with 80 μL of superblock per well for 1 hour. The purified engineered IL2 mutant Fc fusion protein at 100 nM was 3-fold serial diluted 12 times. Each dilution was added to IL2Rα and IL2Rβ wells in parallel. The engineered IL2 mutant binding was detected by adding 50 μL of anti-human Fc HRP diluted at 1:5000 in 1×PBST. In between each step, the plate was washed 3 times with 1×PBST in a plate washer. The plate was then developed with 25 μl of TMB substrate for 5 mins and stopped by adding 25 μl of 2N sulfuric acid. The plate was read at OD450 nm Biotek plate reader and the EC50 was analyzed with Prism 8.1 software.
On the technique in general: ELISA stands for enzyme-linked immunosorbent assay.

For another experiment, the target named is T2, human IL2Rα (human, UniProt P01589 22-213, limits assumed).
T2 construct: also called IL2α; CD25
T2 sequence (looked up): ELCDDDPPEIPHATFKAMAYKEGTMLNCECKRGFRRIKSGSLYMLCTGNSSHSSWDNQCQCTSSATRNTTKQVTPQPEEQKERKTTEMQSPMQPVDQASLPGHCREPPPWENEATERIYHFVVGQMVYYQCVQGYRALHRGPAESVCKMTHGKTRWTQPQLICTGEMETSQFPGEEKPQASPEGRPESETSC
The experiment can be described thus: ELISA, receptor coated, anti-human Fc HRP. As for the experimental part:
as §1

Experiment [2] deals with T3, human IL2Rβ Fc fusion protein (human, UniProt P14784 27-239).
T3 construct: also called Recombinant Fc-tagged human IL2Rβ; not shown: Fc
T3 sequence (looked up): T1 sequence (looked up)
The experiment can be described thus: ELISA, receptor-Fc coated, anti-Flag HRP. The method, then: (§2) Briefly, 384 well plate was immobilized with human IL2Rα and IL2Rβ Fc fusion proteins at a final concentration of 2 ug/mL in 1×PBS in total volume of 25 uL per well. The plate was incubated overnight at 4 C and blocked with 80 uL of superblock per well for 1 hour. […] Each dilution was added to IL2Rα or IL2Rβ wells in parallel in duplicates. The IL2 mutant binding was detected by adding 25 uL of anti-Flag HRP diluted at 1:5000 in 1×PBST. In between each step, the plate was washed three times with 1×PBST using a plate washer. The plate was then developed with 25 uL of TMB substrate for five minutes and stopped by adding 25 ul of 2N sulfuric acid. The plate was read at OD450 nm Biotek plate reader and the EC50 was analyzed with Prism 8.1 software to generate EC50 values (FIG. 15A for IL2Rα, and FIG. 15B for IL2Rβ, summarized in Table 9).

For experiment [3], the target named is T4, human IL2Rα Fc fusion protein (human, UniProt P01589 22-213, limits assumed).
T4 construct: also called Recombinant Fc-tagged human IL2Rα; not shown: Fc
T4 sequence (looked up): T2 sequence (looked up)
The experiment can be described thus: ELISA, receptor-Fc coated, anti-Flag HRP. As for the experimental part:
as §2

The target in experiment [4] is T1, human IL2Rβ. The experiment can be described thus: SPR, IL2Rβ captured on Protein A chip. The method, then:
The assay was run with Biacore T200 control software version 2.0. For each cycle, 1 ug/mL of human IL2Rβ was captured for 60 seconds at flow rate of 10 uL/min on flow cell 2 in 1×HBSP buffer on Protein A sensor chip. 100 nM of HIS and Flag tag purified each IL2 mutant was 2-fold serial diluted and injected onto both reference flow cell 1 and IL2Rβ captured flow cell 2 for 150 seconds at flow rate of 30 uL/min followed by washing for 300 seconds. The flow cells were then regenerated with Glycine pH2 for 60 seconds at a flow rate of 30 uL/min. The assay was set up with 8 serial diluted concentration points in 96-well format. The kinetics data was analyzed with Biacore T200 evaluation software 3.0. The specific binding response unit was derived from subtraction of binding to reference flow cell 1 from target flow cell 2 (FIGS. 16A-16F, Table 10).
On the technique in general: SPR reads the build-up and loss of mass on a sensor chip optically.

Experiment [5] has as its target T3, human IL2Rβ Fc fusion protein. The experiment can be described thus: ELISA, Fc-tagged receptor coated, anti-HisTag-HRP. As for the experimental part:
(§3) Recombinant Fc-tagged human IL2Rα and IL2Rβ were added in 25 uL of 1×PBS to wells of 384-well plate and incubated overnight at 4° C. to coat the plates. Plates were washed three times with 0.05% Tween20/1×PBS. Plates were blocked with 100 uL of SuperBlock for 1 hr at RT and then washed 3 times with 0.05% Tween20/1×PBS. IL2 mutants were diluted in 0.05% Tween 20/1×PBS from 1000 nM to 0 nM and added to plates for 2 hrs at room temperature. Plates were then washed 6 times with 0.05% Tween20/1×PBS. Anti-HisTag-HRP was diluted 1:5000 in 0.05% Tween20/1×PBS and added to plates for 1 hr at RT. Plates were then washed 6 times with 0.05% Tween 20/1×PBS, and TMB was added to develop blue color. Reactions were stopped with 2N […] and light absorbance at 450 nm was read on a BioTek plate reader.

In experiment [6] the target is T4, human IL2Rα Fc fusion protein. The experiment can be described thus: ELISA, single point, Fc-tagged human IL2Rα coated, anti-His-HRP; concentration not printed (Example 14). As for the experimental part:
as §3

Substitutions are numbered along the chain they refer to. Names may count otherwise.

B1: EP001-Fc, Bivalent (EP079) (Fc fusion)
chain: APTSSSTKKTQLQLEHLLLDLQMILNGINNYKNPKLTRMLTFKFYMPKKATELKHLQCLEEELKPLEEVLNLAQSKNFHLTARDAVDNMRVIIQELKGSETTFMCEYADETATIVEFLNRWITFCQSIISTLTEPKSCDKTHTCPLCPAPEAAGGPSVFLFPPKPKDTLMISRTPEVTCVVVDVSHEDPEVKFNWYVDGVEVHNAKTKPREEQYNSTYRVVSVLTVLHQDWLNGKEYKCKVSNKALGAPIEKTISKAKGQPREPQVYTLPPSRDELTKNQVSLTCLVKGFYPSDIAVEWESNGQPENNYKATPPVLDSDGSFFLYSKLTVDKSRWQQGNVFSCSVMHEALHNHYTQKSLSLSPGK
notes: Human IgG1 with L234A, L235A, P329G
One may read the EC50 as the concentration at which the effect is half-maximal. For the molecule B1, in the experiment with human IL2Rβ [1], the EC50 came out at 0.41 nM and the “relative activity IL2Rβ (EC50: fold) against EP085” value stood at 727 fold. Besides, in the experiment with human IL2Rα, the EC50 was found to be 0.64 nM and the “relative activity IL2Rα (EC50: fold) against EP085” value was -12.7 fold.

B2: EP084 (Fc fusion)
chain: B1 chain with R83E, A85V, D87T, M89I, R90T, I92L, I93V
Take B2: in the experiment with human IL2Rβ [1], it took 2.6 nM to reach a half-maximal effect (EC50) and the “relative activity IL2Rβ (EC50: fold) against EP085” value came out at 117 fold. Also, in the experiment with human IL2Rα, the EC50 is 0.041 nM and the “relative activity IL2Rα (EC50: fold) against EP085” value came to 1.23 fold.

B3: EP083 (Fc fusion)
chain: APTSSSTKKTQLQLEHLLLDLQMILNGINNYKNPKLTEMLTFKFYMPKKATELKHLQCLEEELKPLEEVLNLAQSKNFHLEPSDVISNINVLVQELKGSETTFMCEYADETATIVEFLNRWITFCQSIISTLTEPKSCDKTHTCPLCPAPEAAGGPSVFLFPPKPKDTLMISRTPEVTCVVVDVSHEDPEVKFNWYVDGVEVHNAKTKPREEQYNSTYRVVSVLTVLHQDWLNGKEYKCKVSNKALGAPIEKTISKAKGQPREPQVYTLPPSRDELTKNQVSLTCLVKGFYPSDIAVEWESNGQPENNYKATPPVLDSDGSFFLYSKLTVDKSRWQQGNVFSCSVMHEALHNHYTQKSLSLSPGK
On to B3, for which, in the experiment with human IL2Rβ [1], a half-maximal response (EC50) required 0.28 nM and the “relative activity IL2Rβ (EC50: fold) against EP085” value is 1080 fold. Further, in the experiment with human IL2Rα, the EC50 came out at 0.046 nM and the “relative activity IL2Rα (EC50: fold) against EP085” value amounted to 1.09 fold.

B4: EP004-Fc, Bivalent (EP078) (Fc fusion)
chain: B3 chain with E38R, E81C, S83T, V85T, S87E, N90T, V93I
notes: as for B1
As for B4, in the experiment with human IL2Rβ [1], the EC50 is 2.1 nM and the “relative activity IL2Rβ (EC50: fold) against EP085” value turned out to be 142 fold. For the same molecule, in the experiment with human IL2Rα, a half-maximal effect (EC50) was put at 0.041 nM and the “relative activity IL2Rα (EC50: fold) against EP085” value was 1.24 fold.

B5: EP003-Fc, Bivalent (EP082) (Fc fusion)
chain: B3 chain with E38R, E81G, P82V, S83T, V85S, I89A, N90I, V93A, Q94R
notes: as for B1
In the case of B5, in the experiment with human IL2Rβ [1], the EC50 came out at 0.25 nM and the “relative activity IL2Rβ (EC50: fold) against EP085” value was 1190 fold. In addition, in the experiment with human IL2Rα, the response was half-maximal at 0.028 nM (EC50) and the “relative activity IL2Rα (EC50: fold) against EP085” value worked out at 1.78 fold.

B6: EP081 (Fc fusion)
chain: ATPTSSSTKKTQLQLEHLLLDLQMILNGINNYKNPKLTRMLTFKFYMPKKATELKHLQCLEEELKPLEEVLNLAQSKNFHLGVGDTIDNINVLVKELKGSETTFMCEYADETATIVEFLNRWITFCQSIISTLTEPKSCDKTHTCPLCPAPEAAGGPSVFLFPPKPKDTLMISRTPEVTCVVVDVSHEDPEVKFNWYVDGVEVHNAKTKPREEQYNSTYRVVSVLTVLHQDWLNGKEYKCKVSNKALGAPIEKTISKAKGQPREPQVYTLPPSRDELTKNQVSLTCLVKGFYPSDIAVEWESNGQPENNYKATPPVLDSDGSFFLYSKLTVDKSRWQQGNVFSCSVMHEALHNHYTQKSLSLSPGK
With B6, in the experiment with human IL2Rβ [1], a half-maximal effect (EC50) was put at 0.2 nM and the “relative activity IL2Rβ (EC50: fold) against EP085” value came out at 1530 fold. Also, in the experiment with human IL2Rα, the midpoint of the response, the EC50, lay at 0.087 nM and the “relative activity IL2Rα (EC50: fold) against EP085” value was -1.73 fold.

B7: EP242 (ligand)
chain: APTSSSTKKTQLQLEHLLLDLQMILNGINNYKNPKLTRMLTFKFYMPKKATELKHLQCLEEELKPLEEVLNLAQSKNFHLTARDAISNIRVIVQELKGSETTFMCEYADETATIVEFLNRWITFCQSIISTLT
notes: EP001 back-mutation clone; not shown: His and Flag tags
What is called Kd is the free concentration of one partner at which half of the binding sites on the other are occupied at equilibrium, for simple one-to-one binding. As a reminder, the koff is the first-order rate constant of dissociation. Read a high koff as a short-lived complex. The term kon denotes a measure of how fast the partners come together. Read a low kon as slower complex formation. In experiment [2], B7 had an EC50 of 5.7 nM. It took 8.7 nM to reach a half-maximal effect in experiment [3] (EC50). In the experiment with human IL2Rβ [4], this molecule registered a Kd of 7.16 nM, a koff of 0.0241 s⁻¹ and a kon of 3.36e+06 M⁻¹ s⁻¹.

B8: EP343 (ligand)
chain: B7 chain with R38D, Y45S, A82P, S87D
notes: not shown: His and Flag tags
In the case of B8, the EC50 in experiment [5] was 19.7 nM. In experiment [6], the binding result is “no binding (tested: not printed)”.

B9: EP352 (ligand)
chain: B7 chain with F42A, A82P, S87D, V93I, Q94L
notes: not shown: His and Flag tags
On to B9, for which, in experiment [5], the EC50 was 33.8 nM. In addition, the binding result in experiment [6] is on record as “no binding (tested: not printed)”.

B10: EP344 (ligand)
chain: B7 chain with R38D, Y45S, A82P, S87D, V93I, Q94L
notes: not shown: His and Flag tags
As for B10, in experiment [5], the response was half-maximal at 50.7 nM (EC50). Further, the binding result in experiment [6] is listed as “no binding (tested: not printed)”.

B11: EP263 (ligand)
chain: B7 chain with S87D, Q94L
notes: not shown: His and Flag tags
B11: in experiment [2], the EC50 was found to be 1.3 nM. The same molecule registered an EC50 in experiment [3] of 4.9 nM. In the experiment with human IL2Rβ [4], this molecule returned a Kd of 2.79 nM, a koff of 0.0191 s⁻¹ and a kon of 6.84e+06 M⁻¹ s⁻¹.

B12: EP247 (ligand)
chain: B7 chain with T81R, S87D
notes: not shown: His and Flag tags
Take B12: the response in experiment [2] was half-maximal at 4.7 nM (EC50). In addition, the EC50 in experiment [3] was determined as 8.3 nM. In the experiment with human IL2Rβ [4], this molecule displayed a Kd of 7.23 nM, a koff of 0.0304 s⁻¹ and a kon of 4.2e+06 M⁻¹ s⁻¹.

B13: EP351 (ligand)
chain: B7 chain with F42A, A82P, S87D
notes: not shown: His and Flag tags
On to B13, for which a half-maximal effect in experiment [5] (EC50) was put at 21.2 nM. In experiment [6], the binding result is given as “no binding (tested: not printed)”.

B14: EP348 (ligand)
chain: B7 chain with R38V, Y45S, A82P, S87D, V93I, Q94L
notes: not shown: His and Flag tags
In turn, B14 showed an EC50 in experiment [5] of 124 nM. Moreover, the binding result in experiment [6] is on record as “no binding (tested: not printed)”.

For the origin of these results see patent US20230002466A1 (ELPIS BIOPHARMACEUTICALS, published 2023).
